# Biological target: E. coli derived recombinant CRM197 (cross reacting material 197) (Corynebacterium diphtheriae C7 (β197))
# Test: crystal structure; sitting drop, room temperature; 22.9 mg/ml protein in 0.15 M NaCl, 0.01 M Tris/HCl pH 8.3 mixed 1:1 with 0.2 M lithium sulfate, 0.1 M Bis-Tris pH 5.5, 25% (w/v) PEG 3350; data at 100 K; four molecules in the asymmetric unit (two domain-swapped dimers)
substance,measurement,value
E. coli derived recombinant CRM197 (cross reacting material 197) (natural protein),stoichiometry N,2
